The values that follow come from patent US8618101B2, “N-((1R,2S,5R)-5-(tert-butylamino)-2-((S)-3-(7-tert-butylpyrazolo[1,5-a][1,3,5]triazin-4-ylamino)-2-oxopyrrolidin-1-yl)cyclohexyl)acetamide, a dual modulator of chemokine receptor activity, crystalline forms and processes” (Bristol-Myers Squibb Company, priority 2009, dated 2013).

In general, Kd refers to the free concentration of one partner at which half of the binding sites on the other are occupied at equilibrium, for simple one-to-one binding. Lower therefore signals a tighter complex.

The test has as its target CCR-2 (Homo sapiens, UniProt P41597). Nature of the test: Cold competition ligand binding to hCCR-2 using 125I-human MCP-1. The settings on record: 125I-human MCP-1, n=8.

Sequence of CCR-2 (P41597 whole entry): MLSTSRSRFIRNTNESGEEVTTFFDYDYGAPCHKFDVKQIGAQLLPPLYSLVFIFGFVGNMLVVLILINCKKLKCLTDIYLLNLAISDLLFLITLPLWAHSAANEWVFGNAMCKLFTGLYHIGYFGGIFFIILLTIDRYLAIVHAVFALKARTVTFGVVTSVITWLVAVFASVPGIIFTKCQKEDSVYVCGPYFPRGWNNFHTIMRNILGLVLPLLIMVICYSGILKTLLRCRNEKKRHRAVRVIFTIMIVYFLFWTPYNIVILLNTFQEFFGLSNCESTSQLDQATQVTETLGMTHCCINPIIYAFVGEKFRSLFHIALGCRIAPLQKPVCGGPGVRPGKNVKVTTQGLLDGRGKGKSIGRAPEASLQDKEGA

“mouse MCP-1: mouse chemokine MCP-1, major ligand of CCR-2” yielded a Kd of 0.91 nM.
